Source: the supplement of paper PMC10065799, “High-throughput profiling of sequence recognition by tyrosine kinases and SH2 domains using bacterial peptide display” (eLife, 2023)

Assays:
EPHB2 = EPHB2 (UniProt P29323); experiment: phosphorylation enrichment, bacterial display (enrichment ratio); higher = better substrate or ligand; peptides without Tyr show the background
Jak2 = Jak2 (UniProt O60674); experiment: as above
Hck = Hck (UniProt P08631); experiment: as above
Fyn = Fyn (UniProt P06241); experiment: as above
Fer (mouse) = experiment: as above
AncSZ = experiment: as above
FGFR3 = FGFR3 (UniProt P22607); experiment: as above
MERTK = MERTK (UniProt Q12866); experiment: as above
Fes = Fes (UniProt P07332); experiment: as above
c-Abl (mouse) = experiment: as above
c-Src = experiment: as above
EPHB1 = EPHB1 (UniProt P54762); experiment: as above
FGFR1 = FGFR1 (UniProt P11362); experiment: as above
c-Src SH2 = experiment: SH2 binding enrichment of the phosphorylated peptide, bacterial display (enrichment ratio); higher = better substrate or ligand; peptides without Tyr show the background
SHP2-C SH2 = experiment: as above
Grb2 SH2 = Grb2 SH2 (UniProt P62993); experiment: as above
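Wherever SH2 binding enrichment of the phosphorylated peptide, bacterial display is given: peptide library displayed on the E. coli surface as eCPX fusions, selected cells deep-sequenced, score is each peptide's frequency after selection divided by its frequency in the input.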
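Wherever phosphorylation enrichment, bacterial display is given: 11-residue human phosphosite peptides and single-mutation variants displayed on the E. coli surface, counted by deep sequencing, each peptide's frequency after selection divided by its frequency in the unselected input library; frequency after pTyr selection over input frequency; kinase dosed for 20-30% of maximal phosphorylation in three min.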

Sequence of Hck (P08631 whole entry, looked up): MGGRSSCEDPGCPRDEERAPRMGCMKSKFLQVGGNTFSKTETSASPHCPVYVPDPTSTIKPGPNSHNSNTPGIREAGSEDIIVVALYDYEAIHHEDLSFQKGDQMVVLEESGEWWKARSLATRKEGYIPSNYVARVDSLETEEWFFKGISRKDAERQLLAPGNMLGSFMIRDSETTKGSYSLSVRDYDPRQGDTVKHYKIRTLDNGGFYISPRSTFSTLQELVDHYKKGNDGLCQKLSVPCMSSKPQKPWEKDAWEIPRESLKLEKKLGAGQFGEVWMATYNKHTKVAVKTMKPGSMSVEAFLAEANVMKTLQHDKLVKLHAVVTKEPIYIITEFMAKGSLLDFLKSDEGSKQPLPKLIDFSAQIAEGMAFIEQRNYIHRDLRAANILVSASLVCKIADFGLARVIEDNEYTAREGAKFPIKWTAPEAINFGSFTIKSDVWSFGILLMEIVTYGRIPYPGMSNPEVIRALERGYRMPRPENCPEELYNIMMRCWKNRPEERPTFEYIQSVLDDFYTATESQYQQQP
Sequence of EPHB1 (P54762 whole entry, looked up): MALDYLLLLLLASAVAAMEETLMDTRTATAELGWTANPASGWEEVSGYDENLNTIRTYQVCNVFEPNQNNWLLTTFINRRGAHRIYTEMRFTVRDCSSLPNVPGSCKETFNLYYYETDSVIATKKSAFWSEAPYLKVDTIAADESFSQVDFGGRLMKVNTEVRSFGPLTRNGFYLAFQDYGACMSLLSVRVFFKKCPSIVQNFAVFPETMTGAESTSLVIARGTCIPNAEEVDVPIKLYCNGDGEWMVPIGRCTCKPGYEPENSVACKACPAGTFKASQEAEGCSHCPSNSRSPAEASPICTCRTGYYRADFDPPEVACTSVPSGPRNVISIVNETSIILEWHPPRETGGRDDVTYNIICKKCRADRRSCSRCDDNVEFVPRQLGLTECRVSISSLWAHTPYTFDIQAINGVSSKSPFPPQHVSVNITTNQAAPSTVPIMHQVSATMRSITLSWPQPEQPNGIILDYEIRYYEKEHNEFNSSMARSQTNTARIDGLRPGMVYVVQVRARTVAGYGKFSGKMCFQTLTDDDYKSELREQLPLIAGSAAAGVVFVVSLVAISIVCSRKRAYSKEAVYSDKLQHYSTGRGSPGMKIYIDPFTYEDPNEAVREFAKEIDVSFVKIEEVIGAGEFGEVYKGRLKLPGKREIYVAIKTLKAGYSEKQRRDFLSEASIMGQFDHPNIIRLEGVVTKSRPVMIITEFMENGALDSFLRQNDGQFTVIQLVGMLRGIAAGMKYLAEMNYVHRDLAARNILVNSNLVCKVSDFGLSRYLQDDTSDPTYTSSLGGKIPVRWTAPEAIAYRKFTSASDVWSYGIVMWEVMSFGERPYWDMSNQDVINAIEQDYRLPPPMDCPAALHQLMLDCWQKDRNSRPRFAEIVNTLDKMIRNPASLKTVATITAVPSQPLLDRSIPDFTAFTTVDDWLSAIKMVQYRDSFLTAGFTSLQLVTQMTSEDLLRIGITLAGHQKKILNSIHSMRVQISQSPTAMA
Sequence of MERTK (Q12866 whole entry, looked up): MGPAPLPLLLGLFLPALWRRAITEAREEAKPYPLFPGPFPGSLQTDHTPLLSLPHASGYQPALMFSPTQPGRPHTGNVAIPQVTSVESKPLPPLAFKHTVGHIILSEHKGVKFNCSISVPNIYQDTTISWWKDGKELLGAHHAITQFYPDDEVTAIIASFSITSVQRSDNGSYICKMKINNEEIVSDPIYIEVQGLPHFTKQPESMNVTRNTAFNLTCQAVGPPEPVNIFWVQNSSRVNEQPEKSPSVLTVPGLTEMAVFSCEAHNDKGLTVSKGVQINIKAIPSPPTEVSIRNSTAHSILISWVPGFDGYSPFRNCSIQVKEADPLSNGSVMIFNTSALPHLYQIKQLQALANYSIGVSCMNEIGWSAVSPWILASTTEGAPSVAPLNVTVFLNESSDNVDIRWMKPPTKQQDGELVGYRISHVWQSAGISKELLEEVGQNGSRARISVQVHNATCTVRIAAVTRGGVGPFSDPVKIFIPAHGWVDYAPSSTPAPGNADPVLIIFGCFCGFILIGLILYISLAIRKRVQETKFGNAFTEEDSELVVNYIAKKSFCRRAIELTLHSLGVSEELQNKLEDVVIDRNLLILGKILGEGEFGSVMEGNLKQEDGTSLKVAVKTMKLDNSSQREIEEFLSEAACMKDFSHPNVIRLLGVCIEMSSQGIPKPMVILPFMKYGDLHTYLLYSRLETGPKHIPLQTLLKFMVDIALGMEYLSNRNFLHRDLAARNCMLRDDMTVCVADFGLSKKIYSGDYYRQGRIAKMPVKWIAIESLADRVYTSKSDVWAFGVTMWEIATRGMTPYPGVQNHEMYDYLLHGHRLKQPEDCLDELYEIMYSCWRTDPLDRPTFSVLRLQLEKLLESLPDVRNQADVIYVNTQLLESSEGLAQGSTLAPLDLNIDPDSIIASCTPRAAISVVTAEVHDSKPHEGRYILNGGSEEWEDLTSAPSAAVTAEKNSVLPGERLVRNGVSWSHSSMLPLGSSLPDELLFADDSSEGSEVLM
Sequence of Jak2 (O60674 whole entry, looked up): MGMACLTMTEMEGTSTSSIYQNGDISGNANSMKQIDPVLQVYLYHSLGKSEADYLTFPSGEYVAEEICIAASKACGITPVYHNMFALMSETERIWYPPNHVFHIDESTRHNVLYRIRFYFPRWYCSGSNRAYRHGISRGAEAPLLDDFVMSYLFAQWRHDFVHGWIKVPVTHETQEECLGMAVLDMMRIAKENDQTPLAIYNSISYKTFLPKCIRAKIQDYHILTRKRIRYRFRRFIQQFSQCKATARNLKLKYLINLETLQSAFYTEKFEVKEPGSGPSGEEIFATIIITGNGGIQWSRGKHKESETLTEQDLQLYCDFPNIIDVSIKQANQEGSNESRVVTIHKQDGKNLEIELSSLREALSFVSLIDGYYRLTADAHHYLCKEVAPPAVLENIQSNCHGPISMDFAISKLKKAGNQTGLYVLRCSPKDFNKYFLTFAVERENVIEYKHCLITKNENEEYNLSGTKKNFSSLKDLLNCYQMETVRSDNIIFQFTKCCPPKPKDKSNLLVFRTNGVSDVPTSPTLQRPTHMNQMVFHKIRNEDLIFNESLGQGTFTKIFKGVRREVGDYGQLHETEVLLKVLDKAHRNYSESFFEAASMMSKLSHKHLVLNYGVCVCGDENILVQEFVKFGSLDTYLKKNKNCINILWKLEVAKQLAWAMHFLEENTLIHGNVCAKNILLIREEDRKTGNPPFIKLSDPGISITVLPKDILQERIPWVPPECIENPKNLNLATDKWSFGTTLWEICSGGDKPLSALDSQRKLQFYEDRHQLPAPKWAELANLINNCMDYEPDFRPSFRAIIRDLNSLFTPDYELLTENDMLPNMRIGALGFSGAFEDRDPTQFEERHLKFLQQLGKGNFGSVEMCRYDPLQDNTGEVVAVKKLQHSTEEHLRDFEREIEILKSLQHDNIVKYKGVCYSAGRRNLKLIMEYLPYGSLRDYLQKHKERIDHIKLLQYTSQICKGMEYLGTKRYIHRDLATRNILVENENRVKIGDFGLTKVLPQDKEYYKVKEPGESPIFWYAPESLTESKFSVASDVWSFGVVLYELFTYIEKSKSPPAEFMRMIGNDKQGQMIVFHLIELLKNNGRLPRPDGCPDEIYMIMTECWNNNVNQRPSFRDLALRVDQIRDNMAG
Sequence of FGFR3 (P22607 whole entry, looked up): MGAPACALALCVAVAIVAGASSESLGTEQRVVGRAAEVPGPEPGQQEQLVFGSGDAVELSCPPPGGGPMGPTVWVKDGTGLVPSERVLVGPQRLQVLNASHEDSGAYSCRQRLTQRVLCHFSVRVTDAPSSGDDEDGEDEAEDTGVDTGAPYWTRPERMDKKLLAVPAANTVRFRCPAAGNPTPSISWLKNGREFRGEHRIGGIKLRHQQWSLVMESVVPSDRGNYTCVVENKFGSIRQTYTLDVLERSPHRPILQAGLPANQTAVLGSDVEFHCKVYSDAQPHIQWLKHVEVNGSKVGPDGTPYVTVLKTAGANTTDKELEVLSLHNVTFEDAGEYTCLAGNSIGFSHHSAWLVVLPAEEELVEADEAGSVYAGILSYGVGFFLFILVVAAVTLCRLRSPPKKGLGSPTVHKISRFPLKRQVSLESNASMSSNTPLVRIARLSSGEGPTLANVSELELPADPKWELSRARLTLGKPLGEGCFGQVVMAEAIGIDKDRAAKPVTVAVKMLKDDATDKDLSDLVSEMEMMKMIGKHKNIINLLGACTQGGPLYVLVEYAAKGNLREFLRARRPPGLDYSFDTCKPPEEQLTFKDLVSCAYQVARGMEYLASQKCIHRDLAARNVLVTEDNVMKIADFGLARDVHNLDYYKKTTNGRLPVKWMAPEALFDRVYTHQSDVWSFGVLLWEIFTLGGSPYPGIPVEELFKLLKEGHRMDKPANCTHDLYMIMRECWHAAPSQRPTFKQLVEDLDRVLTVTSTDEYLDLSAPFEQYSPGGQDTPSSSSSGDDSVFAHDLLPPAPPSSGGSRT
Sequence of Fyn (P06241 whole entry, looked up): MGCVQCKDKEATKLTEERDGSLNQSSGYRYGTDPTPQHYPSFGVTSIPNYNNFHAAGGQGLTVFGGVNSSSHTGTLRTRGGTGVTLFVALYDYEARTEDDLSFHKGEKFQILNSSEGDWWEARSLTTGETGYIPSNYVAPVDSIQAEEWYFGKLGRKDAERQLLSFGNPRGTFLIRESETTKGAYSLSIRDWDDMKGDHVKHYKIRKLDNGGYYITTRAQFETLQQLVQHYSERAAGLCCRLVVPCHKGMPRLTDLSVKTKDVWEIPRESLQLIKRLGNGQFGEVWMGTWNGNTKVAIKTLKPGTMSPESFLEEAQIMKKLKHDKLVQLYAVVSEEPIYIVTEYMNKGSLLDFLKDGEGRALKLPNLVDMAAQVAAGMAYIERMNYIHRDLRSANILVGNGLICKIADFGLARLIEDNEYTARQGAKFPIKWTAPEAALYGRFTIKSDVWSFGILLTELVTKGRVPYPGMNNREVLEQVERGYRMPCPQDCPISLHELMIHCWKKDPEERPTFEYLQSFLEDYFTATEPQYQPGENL

Sequence	SH2 binding enrichment (c-Src SH2)	SH2 binding enrichment (SHP2-C SH2)	SH2 binding enrichment (Grb2 SH2)	phosphorylation enrichment (EPHB2)	phosphorylation enrichment (Jak2)	phosphorylation enrichment (Hck)	phosphorylation enrichment (Fyn)	phosphorylation enrichment (Fer (mouse))	phosphorylation enrichment (AncSZ)	phosphorylation enrichment (FGFR3)	phosphorylation enrichment (MERTK)	phosphorylation enrichment (Fes)	phosphorylation enrichment (c-Abl (mouse))	phosphorylation enrichment (c-Src)	phosphorylation enrichment (EPHB1)	phosphorylation enrichment (FGFR1)
PEYVVYKPQME [CCRL2_Y170_F167Y]	0.439	1.05	0.913	7.28	5.75	6.69	9.13	1.09	6.34	6.08	1.14	1.29	9.5	9.4	2.97	8.3
PGVDRYSLGTS [C5orf42_Y1451]	0.262	0.762	0.576	0.788	0.769	0.678	0.702	0.57	0.789	0.745	0.788	0.973	0.741	0.737	0.577	0.755
PINLFYLMDLS [ITGB2_Y131_D128N_YF]	0.489	0.781	0.772	0.886	1.92	0.718	0.653	0.695	1.46	1.11	0.763	1.98	2.11	1.11	0.752	0.772
PLKALYLQQRP [ATM_Y2969]	0.914	1.07	1.3	0.687	1.17	0.642	0.822	0.764	0.954	0.743	0.695	1.49	0.934	0.576	0.766	0.774
PLQDVYKIGGI [EEF1A2_Y254]	0.429	0.574	1.03	0.572	1	1.04	2.3	0.679	1.01	0.793	0.522	0.981	1.92	4.34	2.02	0.505
PLRPDYQEPSR [DDR2_Y481]	0.786	0.663	1.02	0.636	1.02	0.57	0.509	0.397	1.21	0.768	0.516	1.66	0.861	0.533	0.581	0.532
PNAYIYVVQLP [L1CAM_Y420_A415P]	0.862	1.14	1.36	1.35	1.75	0.832	0.941	0.47	1.53	1.61	2.25	1.76	1.18	1.31	1.08	1.6
PPAPRCHHSAV [LZTR1_Y119_Y119C]	0.89	1.51	1.31	0.701	1.75	1.28	0.921	2.15	1.61	1.21	0.566	2.01	0.842	0.718	1.17	0.839
PPLMLYNPTTF [EGFR_Y270_YF]	0.278	0.785	0.931	0.891	1.03	1.13	0.692	1.25	1.34	0.857	1	1.21	0.79	0.863	0.973	0.731
PQAVRYIFTID [DCX_Y103_G100A_YF]	1.54	3.09	1.53	0.59	0.806	0.673	0.639	0.524	1.15	0.841	0.595	1.76	0.863	0.385	1.29	1.01
PQAVTYAEVKH [LILRB4_Y360_K362E]	2.73	32.9	0.83	1.16	0.867	4.17	5.58	0.804	0.872	0.625	0.617	1.03	0.763	4.89	1.94	0.692
PQDSAYHSGIQ [FLG_Y3940_S3935P]	0.437	0.613	0.787	0.49	0.598	0.486	0.459	0.419	0.651	0.522	0.445	0.755	1.69	0.553	0.652	0.534
PQEVMYAQLDH [KIR3DL2_Y398_T397M]	1.21	6.57	0.748	0.621	1.71	5.19	6.26	4.04	1.62	2.2	6.77	1.52	7.37	7.15	1.06	2.69
PSDLLYILDIQ [ITGA2B_Y845]	0.571	0.492	1.19	1.06	2.24	1.57	2.82	1.32	2.77	1.91	2.82	2.33	1.17	4.22	1.07	1.35
PSRKDYETFQP [CTNND2_Y1154_YF]	0.645	0.372	0.884	1.52	1.11	0.73	0.605	0.473	1.22	0.667	0.572	1.21	0.907	0.737	1.04	0.558
PTTMTYFPHFD [HBA1_Y43_K41M]	0.658	0.782	1.13	0.577	1.61	0.951	0.554	0.521	0.823	2.32	0.802	1.01	0.859	0.754	0.603	2.97

Continued, in another order:

SH2 binding enrichment (c-Src SH2)	SH2 binding enrichment (SHP2-C SH2)	SH2 binding enrichment (Grb2 SH2)	Sequence	phosphorylation enrichment (EPHB2)	phosphorylation enrichment (Jak2)	phosphorylation enrichment (Hck)	phosphorylation enrichment (Fyn)	phosphorylation enrichment (Fer (mouse))	phosphorylation enrichment (AncSZ)	phosphorylation enrichment (FGFR3)	phosphorylation enrichment (MERTK)	phosphorylation enrichment (Fes)	phosphorylation enrichment (c-Abl (mouse))	phosphorylation enrichment (c-Src)	phosphorylation enrichment (EPHB1)	phosphorylation enrichment (FGFR1)
0.646	0.861	1	PGPQSYPIVTG [PAX5_Y299]	0.538	0.533	0.565	0.68	0.744	0.611	0.685	0.586	0.736	0.5	0.4	0.484	0.504
0.772	1.02	0.618	PKSWNYELPAT [PROM1_Y34_A31S]	1.67	0.658	1.26	1.13	1.06	2.37	1.65	1.07	1.45	0.605	0.448	1.67	1.39
0.45	0.725	0.816	PLDGEYFTPQI [TP53_Y327_L330P]	1.91	0.978	0.733	0.89	0.482	6.68	2.19	0.474	1.34	12.9	0.434	1.53	3.09
0.518	0.663	0.71	PLDGGYFTLQI [TP53_Y327_E326G]	0.776	5.04	0.679	0.726	0.766	1.79	1.59	0.5	1.75	1.09	1.37	1.2	1.67
0.818	0.8	0.969	PLKFLYPNIDR [STAT1_Y668_K673R_YF]	0.664	1.06	0.6	0.796	0.602	1.31	0.953	0.519	1.24	0.891	0.55	0.941	0.443
0.568	0.878	0.918	PNRILYGDFRQ [MYH6_Y717]	0.731	0.862	4.43	6.85	0.5	0.823	0.688	0.622	1.02	0.658	5.52	0.538	0.501
0.599	0.713	1.06	PPSGEYFGHCG [TRIP6_Y275_Q278H]	1.02	0.999	0.983	0.698	0.668	1.69	1.18	0.529	1.38	0.904	0.509	0.85	0.698
0.686	0.716	1.15	PRAEWYRDDLL [MYOM2_Y317_V321L]	0.726	0.952	0.681	0.612	0.502	1.49	0.626	0.511	1.4	0.798	0.575	0.692	0.591
0.546	0.631	0.911	PSAELYSFALP [PDGFRB_Y716_N718Y_YF]	11.8	1.03	6.93	7.74	17.4	2.77	5.36	13.2	1.28	1.51	7.32	10.7	6.2
0.473	0.646	1.06	PSAVAYPKRSQ [MARK3_Y432_V429A]	0.563	0.577	0.441	0.563	0.444	0.697	0.545	0.685	0.818	0.615	0.696	0.544	0.382
0.613	1.09	0.769	PSQRRNVFFFS [PTEN_Y174_Y174N_YF]	0.342	0.54	1.41	0.924	0.493	1.31	0.777	0.571	1.23	0.817	0.591	0.559	1.07
1.09	0.576	1.43	PTFEHYANSTQ [SLC12A3_Y70_YF]	0.993	0.742	0.598	0.852	1.14	1.34	0.988	0.771	1.07	0.742	0.433	0.768	0.818
0.586	0.669	0.732	PTKNDYWAMPA [WWOX_Y287_L291P]	14.4	2.69	1.82	0.987	0.469	2.02	16.3	5.26	1.03	1.39	0.952	18.6	20.6
0.56	0.768	0.702	PTYKHYANSTQ [SLC12A3_Y70_E68K]	0.418	0.593	0.434	0.542	0.448	0.39	0.466	0.442	0.592	0.44	0.422	0.391	0.529
0.594	1.34	0.952	PYRSIYFSSPK [MPG_Y75]	0.582	0.657	1.09	1.03	0.72	0.878	0.856	0.835	0.648	0.887	0.903	0.519	0.778
0.718	1.43	4.29	QADVVYVNTQL [MERTK_Y872_I871V]	1.17	0.728	0.729	0.729	3.51	0.822	0.648	0.372	1.8	0.631	0.738	0.66	0.88
0.413	0.734	0.791	QAPPIYLDVLG [NTRK1_Y791_V790I]	3.26	1.21	2.11	1.46	3.26	1.31	2.38	3.35	0.952	0.878	1.71	13.6	3.35
